Results on five molecules are retold here after patent US20080124340A1 (published 2008).

This assay concerns the target T1, mouse EpoR-Fc protein (muEpoR-Fc) (mouse, UniProt P14753 25-249).
T1 construct: Biotinylated in the assay; also called biotinylated muEpoR-Fc; not shown: Fc part not described
T1 sequence (looked up): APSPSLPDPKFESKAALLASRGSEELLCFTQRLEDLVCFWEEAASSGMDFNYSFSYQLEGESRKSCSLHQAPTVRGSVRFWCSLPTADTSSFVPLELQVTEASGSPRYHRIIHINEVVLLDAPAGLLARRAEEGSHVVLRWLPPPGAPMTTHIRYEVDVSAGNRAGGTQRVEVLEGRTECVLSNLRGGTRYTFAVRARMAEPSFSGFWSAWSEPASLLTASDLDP
The experiment in a line: ELISA: antibody coated at 1 µg/ml, biotinylated muEpoR-Fc at 5 µg/ml, streptavidin-HRP, ABTS. A general note: ELISA stands for enzyme-linked immunosorbent assay.

B1: clone 10 IgG2 protein (antibody, V domains shown)
VH: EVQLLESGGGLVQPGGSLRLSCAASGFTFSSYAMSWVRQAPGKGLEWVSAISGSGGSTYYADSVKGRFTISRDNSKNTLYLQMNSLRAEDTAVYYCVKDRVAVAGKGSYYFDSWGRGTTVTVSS
VL: QSVLTQPPSVSEAPGQRVTIACSGSSSNIGNNAVSWYQQLPGKAPTLLIYYDNLLPSGVSDRFSGSKSGTSASLAISGLQSEDEADYYCAAWDDSLNDWVFGGGTKVTVL
notes: Human IgG2; also called IgG2 10
As for B1, the binding result is given as “binds”.

B2: clone 2 IgG2 protein (antibody, V domains shown)
VH: EVQLVQSGGGLVQPGGSLRLSCAASGFTFSSYWMSWVRQAPGKGLEWVANIKPDGSEKYYVDSVKGRFTISRDNAKNSVYLQMNSLRAEDTAVYYCARVSRGGSYSDWGQGTLVTVSS
VL: QSVLTQPPSASGSPGQSVTISCTGTSSDVGGYNYVSWYQQHPGKAPKLMIYEVSKRPSGVPDRFSGSKSGNTASLTVSGLQPEDEADYYCSSYAGRNWVFGGGTQLTVL
notes: Human IgG2 (vector pVE414NhuIgG2); light chain constant type matches the variable light chain isotype; also called IgG2 2; IgG22
On to B2, for which the binding result is given as “binds”.

B3: clone 7 IgG2 protein (antibody, V domains shown)
VH: EVQLVQSGGGLVQPGGSLRLSCAASGFTFSSYWMSWVRQAPGKGLEWVANIKPDGSEKYYVDSVKGRFTISRDNAKNSVYLQMNSLRAEDTAVYYCARVSRGGSYSDWGKGTLVTVSS
VL: QSALTQPASVSGSPGQSIIISCTGTRSDIGGYNYVSWYQHHPGRAPKLIIFDVNNRPSGVSHRFSGSKSGNTASLTISGLQAEDEADYYCNSFTDSRTWLFGGGTKLTVL
notes: Human IgG2; also called IgG2 7
Regarding B3, the binding result is “binds”.

B4: clone 5 IgG2 protein (antibody, V domains shown)
VH: EVQLVESGGGLVQPGGSLRLSCAASGFTFSSYWMSWVRQAPGKGLEWVANIKPDGSEKYYVDSVKGRFTISRDNAKNSVYLQMNSLRAEDTAVYYCARVSRGGSYSDWGQGTLVTVSS
VL: QSALTQPASVSGSPGQSITISCTGTSSDVGGYIYVSWYQQHPGKAPKLMIYDVSRRPSGISDRFSGSKSGNTASLTISGLQAEDEADYYCNSYTTLSTWLFGGGTKVTVL
notes: Human IgG2; also called IgG2 5; IgG25
As for B4, the binding result was “binds”.

B5: clone 30 IgG2 protein (antibody, V domains shown)
VH: QVQLQESGPGLVKPSQTLSLTCAISGDSVSSNSAAWNWIRQSPSRGLEWLGRTYYRSKWYNDYAVSVKSRMTIKADTSKNQFSLQLNSVTPEDTAVYYCARDEGPLDYWGQGTLVTVSA
VL: QAVLTQPSSVSGAPGQRVTISCTGSSSNLGTGYDVHWYQQLPGTAPKLLIYGNSNRPSGVPDRFSGSKSDTSGLLAITGLQAEDEATYYCQSYDFSLSAMVFGGGTKVTVL
notes: Human IgG2; also called IgG2 30
On to B5, for which the binding result is listed as “binds”.
